Assay results taken from patent US20030073629A1, “Omi and domains thereof that disrupt IAP-caspase interaction” (priority 2001, published 2003).

Columns and labels:
MCF-7 cells [1] = test: Immunofluorescence confocal microscopy of Omi in MCF-7 cells; type: cell-based; conditions: TRAIL 1 μg/ml; untreated cells mostly punctate and perinuclear
MCF-7 cells [2] = test: Apoptosis of MCF-7 cells transfected with cytosolic Omi-GFP fusion proteins; type: cell-based; conditions: 36 hours following transfection
Method: (§1) FIG. 20 provides schematic diagrams of the Omi-GFP and GFP-IETD-Omi constructs used to assay the ability of Omi to induce apoptosis or to enhance apoptosis by other stimuli.
FIG. 21 is a bar graphic representation of the percentages of GFP-positive apoptotic MCF-7 cells 36 hours following transfection with M-Omi-S/A-GFP or pEGFP-N1 alone or M-Omi-GFP together with empty vector or expression construct encoding XIAP, XIAP-BIR3, or caspase-9DN. The cells were also transfected with M-Omi-GFP expression construct in the presence of zVAD-FMK (20 μM).

XIAP-BIR3 = molecular target: T1, XIAP-BIR3 (Homo sapiens, UniProt P98170); test: GST-BIR3 precipitation of extracts of transfected 293T cells; type: binding; conditions: 24 hours after transfection
T1 construct: Omi associates directly with the BIR3 domain of XIAP
T1 sequence (P98170 238-358 limits assumed): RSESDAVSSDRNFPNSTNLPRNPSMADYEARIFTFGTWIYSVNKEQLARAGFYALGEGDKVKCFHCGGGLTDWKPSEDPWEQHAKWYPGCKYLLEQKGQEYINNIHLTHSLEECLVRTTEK
Method: FIG. 24 is a scanned image of an immunoblot with Flag-HRP antibody of 293T cells extracts precipitated with GST-BIR3 24 hours after transfection with the indicated expression constructs extracts.
(§2) Next, the contribution of the IAP binding activity of Omi to its proapoptotic activity was tested. The MTS of Omi was replaced with a GFP-IETD sequence and mutated at its active site Ser306 to Ala (FIG. 20, GFP-IETD-AVP). Of note, the presence of the IETD sequence between GFP and Omi-S/A allowed caspase-dependent cleavage at the IETD site after the Asp residue and release of mature Omi-S/A in the cytosol of the transfected 293 and MCF-7 cells (FIG. 23). […] Taken together, Omi not only can induce apoptosis through its serine protease activity but also via its ability to bind and neutralize IAPs.

cIAP2 = molecular target: T2, cIAP2 (Homo sapiens, UniProt Q13489); test: In vitro interaction of immobilized His6-tagged protein with 35S-labeled cIAP2; type: binding; conditions: immobilized on Talon-affinity resin; in vitro-translated 35S-labeled cIAP2
T2 construct: made in house; host or cells: in vitro translation (cell-free)
T2 sequence (Q13489 whole entry, species assumed): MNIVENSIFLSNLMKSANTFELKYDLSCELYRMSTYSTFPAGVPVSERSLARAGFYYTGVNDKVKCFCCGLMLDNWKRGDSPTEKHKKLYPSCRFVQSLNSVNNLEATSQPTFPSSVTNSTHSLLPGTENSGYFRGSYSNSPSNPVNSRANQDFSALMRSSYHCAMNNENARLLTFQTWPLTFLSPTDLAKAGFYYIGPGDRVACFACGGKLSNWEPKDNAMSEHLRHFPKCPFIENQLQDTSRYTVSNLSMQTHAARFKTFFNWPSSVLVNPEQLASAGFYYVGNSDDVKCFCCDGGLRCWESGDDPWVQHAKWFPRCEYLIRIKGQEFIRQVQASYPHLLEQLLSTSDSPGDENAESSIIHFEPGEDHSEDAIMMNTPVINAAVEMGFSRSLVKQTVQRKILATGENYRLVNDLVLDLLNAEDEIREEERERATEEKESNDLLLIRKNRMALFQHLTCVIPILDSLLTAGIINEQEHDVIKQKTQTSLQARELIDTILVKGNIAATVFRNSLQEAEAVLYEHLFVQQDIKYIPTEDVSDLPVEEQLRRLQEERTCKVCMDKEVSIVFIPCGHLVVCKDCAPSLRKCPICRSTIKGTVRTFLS
Method: (§3) FIG. 8 is a scanned image of an autoradiogram representing SDS-PAGE analysis of interaction of XIAP, cIAP1, and cIAP2 with mature Omi and Smac. Immobilized C-terminal His6-tagged mature Omi or Smac, or GST protein was incubated with in vitro-translated ^35S-labeled XIAP (first panel), cIAP1 (second panel), or cIAP2 (third panel). The fourth panel is a scanned image of a Coomassie stained gel of the immobilized proteins.
(§4) C-terminal His6-tagged mature Omi or Smac, or a GST protein were immobilized onto Talon-affinity resin. The bound resins were incubated with in vitro-translated ^35S-labeled XIAP (first panel), cIAP1 (second panel) or cIAP2 (third panel), washed extensively, and then analyzed by SDS polyacrylamide gel electrophoresis and autoradiography. GST was used as a negative control (second lane of each panel). The fourth panel, represents a scanned image of a Coomassie stained gel of the immobilized proteins. […] The in vitro assays were performed as described in Srinivasula, S. M. et al., J Biol Chem 275:36152-36157, 2000.

cIAP1 = molecular target: T3, cIAP1 (Homo sapiens, UniProt Q13490); test: In vitro interaction of immobilized His6-tagged protein with 35S-labeled cIAP1; type: binding; conditions: immobilized on Talon-affinity resin; in vitro-translated 35S-labeled cIAP1
T3 construct: made in house; host or cells: in vitro translation (cell-free)
T3 sequence (Q13490 whole entry, species assumed): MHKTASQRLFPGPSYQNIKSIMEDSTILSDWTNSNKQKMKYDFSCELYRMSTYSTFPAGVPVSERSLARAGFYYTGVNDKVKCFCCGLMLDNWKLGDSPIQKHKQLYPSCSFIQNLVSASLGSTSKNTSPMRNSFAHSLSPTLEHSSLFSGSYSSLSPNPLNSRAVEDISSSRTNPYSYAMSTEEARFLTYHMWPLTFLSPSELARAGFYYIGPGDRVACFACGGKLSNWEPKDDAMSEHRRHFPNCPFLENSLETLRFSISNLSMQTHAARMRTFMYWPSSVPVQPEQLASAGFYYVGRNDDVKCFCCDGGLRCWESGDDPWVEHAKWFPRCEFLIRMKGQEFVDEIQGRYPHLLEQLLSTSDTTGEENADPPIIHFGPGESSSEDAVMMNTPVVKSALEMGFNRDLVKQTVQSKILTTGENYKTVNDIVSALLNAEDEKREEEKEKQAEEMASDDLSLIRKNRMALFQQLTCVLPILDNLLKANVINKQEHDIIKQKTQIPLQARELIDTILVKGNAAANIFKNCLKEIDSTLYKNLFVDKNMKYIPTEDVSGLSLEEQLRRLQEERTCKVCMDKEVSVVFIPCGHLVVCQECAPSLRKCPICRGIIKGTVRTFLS
Method: as §3, §4

endogenous XIAP = molecular target: T4, endogenous XIAP (Homo sapiens, UniProt P98170); test: Co-immunoprecipitation with endogenous XIAP in transfected 293T cells; type: cell-based; conditions: 293T cells transfected with C-terminal Flag-tagged Omi precursors, XIAP western blot
T4 construct: endogenous in cells; host or cells: 293T cells
T4 sequence (P98170 whole entry): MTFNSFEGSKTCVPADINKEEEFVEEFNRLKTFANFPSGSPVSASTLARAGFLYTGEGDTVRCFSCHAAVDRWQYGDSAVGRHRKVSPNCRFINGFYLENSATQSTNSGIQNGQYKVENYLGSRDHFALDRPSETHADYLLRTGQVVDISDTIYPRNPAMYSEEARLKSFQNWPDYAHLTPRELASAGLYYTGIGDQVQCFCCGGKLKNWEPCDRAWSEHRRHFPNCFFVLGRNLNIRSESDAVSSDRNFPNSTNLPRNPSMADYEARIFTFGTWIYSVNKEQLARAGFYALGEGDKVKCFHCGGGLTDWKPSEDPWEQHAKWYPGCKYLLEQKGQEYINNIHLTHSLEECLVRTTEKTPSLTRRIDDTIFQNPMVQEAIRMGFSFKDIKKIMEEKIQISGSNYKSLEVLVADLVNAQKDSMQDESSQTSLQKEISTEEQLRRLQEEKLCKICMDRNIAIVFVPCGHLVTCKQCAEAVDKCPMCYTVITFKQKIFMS
Source text: FIG. 9 is a scanned image of a blot representing western blot analysis using an XIAP monoclonal antibody (upper panel) or Flag antibody (middle panel) of 293T cells transfected with constructs encoding C-terminal Flag-tagged Omi wild type or mutant precursors and immunoprecipitated with Flag antibody. The lower panel is a scanned image of a blot representing total extracts probed with the XIAP antibody. Arrows indicate IgG bands.

[3] = test system: GST-BIR1, 2 fusion protein; test: Interaction of purified recombinant proteins with GST-BIR1, 2 fusion protein; type: binding, human; conditions: purified C-terminal His6-tagged recombinant protein
Chain of GST-BIR1, 2 fusion protein (P98170 124-240 limits assumed): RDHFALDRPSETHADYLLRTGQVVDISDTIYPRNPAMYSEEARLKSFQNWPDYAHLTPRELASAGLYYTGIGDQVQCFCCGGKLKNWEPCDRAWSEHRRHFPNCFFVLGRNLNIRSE
Source text: (§5) FIGS. 7A and 7B are scanned images of Coomassie stained gels representing SDS-PAGE analysis of purified C-terminal His6-tagged recombinant wild type mature Omi (WT), Omi-ΔAVPS, Omi-S306A, and mature Smac (7A) and recombinant Omi and Smac proteins with GST-BIR1, GST-BIR2, GST-BIR3, or GST-BIR3-E314S fusion proteins (7B).
(§6) To determine whether a recombinant Omi lacking the first 133 residues (mature Omi) can interact with the GST-BIR3 fusion protein, this protein was expressed with a C-terminal His6 tag in bacteria and purified to apparent homogeneity (see FIG. 7B). […] FIGS. 7A and 7B show scanned images of Coomassie stained gels representing SDS-PAGE analysis of purified C-terminal His6-tagged recombinant wild type mature Omi (WT), Omi-ΔAVPS, Omi-S306A, and mature Smac (FIG. 7A) and recombinant Omi and Smac proteins with GST-BIR1, 2, GST-BIR3 or GST-BIR3-E314S fusion proteins (FIG. 7B).

[4] = molecular target: T5, GST-BIR3 fusion protein (BIR3 domain of human XIAP) (Homo sapiens, UniProt P98170); test: Interaction of purified recombinant proteins with GST-BIR3 fusion protein (SDS-PAGE, Coomassie); type: binding; conditions: purified C-terminal His6-tagged recombinant protein; wild type GST-BIR3
T5 construct: Omi associates directly with the BIR3 domain of XIAP
T5 sequence (P98170 238-358 limits assumed): as the sequence (P98170 238-358 limits assumed) above
Source text: as §5, §6

GST-BIR3-E314S mutant = molecular target: T6, GST-BIR3-E314S mutant (Homo sapiens, UniProt P98170, E314S); test: Interaction of purified recombinant proteins with GST-BIR3-E314S mutant; type: binding; conditions: purified C-terminal His6-tagged recombinant protein
T6 construct: Omi associates directly with the BIR3 domain of XIAP
T6 sequence (P98170 238-358 E314S limits assumed): as the sequence (P98170 238-358 limits assumed) above, with E77S counted along it
Source text: as §5
To confirm that Omi associates directly with the BIR3 domain of XIAP but not with the Smac protein, Smac was depleted from the 293 extracts using a Smac monoclonal antibody. Specifically, 293 cellular extracts were either left untreated (undepleted lane of FIG. 4) or depleted with a Smac antibody (lane depleted of FIG. 4). The undepleted and depleted extracts were incubated with the GST-BIR3 protein and the bound proteins were eluted as above. The eluates were then analyzed by far-western blotting with ^35S-XIAP and by western blotting with the Smac antibody as described above (see FIG. 4, left and right panels, respectively). […] The last lane of each panel in FIG. 4 represents the 293 cellular extracts that were bound to the E314S mutant GST-BIR3 fusion protein. […] The asterisk in FIG. 4 indicates non-specific bands and the arrow indicates the IgG band. […]

[5] = molecular target: T7, caspase-9 interaction with XIAP (procaspase-3 activation) (Homo sapiens, UniProt P98170); test: Procaspase-3 activation in XIAP-containing S100 extracts stimulated with cytochrome c and dATP; type: biochemical; conditions: S100 extracts with purified XIAP, cytochrome c plus dATP; 10, 50 or 300 ng protein
T7 construct: caspase-9: endogenous in 293T/HEK293 S100 extract
T7 sequence (P98170 whole entry): as the sequence (P98170 whole entry) above
Method: FIG. 17 is a scanned image of an autoradiogram, representing SDS-PAGE analysis of ^35S-labeled procaspase-3 following stimulation of 293T S100 extracts (20μg) mixed with purified XIAP (50 ng) with cytochrome c (0.5 μg) plus dATP (1 mM), in the presence of increasing amounts (10, 50, or 300 ng, respectively) of purified mature WT Omi, Omi-ΔAVPS, Omi-S306A, or mature Smac in 10 μl reaction volume. In the fifth lane, S100 extracts were incubated with. 300 ng of WT Omi without XIAP.
Next, it was determined whether Omi, like Smac, promotes caspase-9 activity in HEK293 S100 extracts in the presence of XIAP. To measure the caspase-9 activity in these extracts, ^35S-labeled procaspase-3 was added to the S100 extracts and stimulated the extracts with cytochrome c and dATP. […] These observations indicate that Omi, like Smac, is able to disrupt the interaction of caspase-9 with XIAP in the S100 extracts to promote procaspase-3 activation.

MCF-7 cells [6] = test: TRAIL-induced apoptosis of MCF-7 cells transfected with GFP-IETD-Omi constructs; type: cell-based; conditions: TRAIL for 16 hours, 24 hours following transfection; versus GFP transfected control cells
Method: as §1
FIG. 25 is a bar graphic representation of the percentages of the determined round apoptotic MCF-7 cells that were left untreated (−) or treated with TRAIL (+) for 16 hours 24 hours following transfection with the indicated expression constructs.
as §2

B1: TRAIL: apoptotic stimulus acting by TRAIL-receptor ligation (protein, UniProt P50591 1-281, looked up)
Tumor necrosis factor ligand …: MAMMEVQGGPSLGQTCVLIVIFTVLLQSLCVAVTYVYFTNELKQMQDKYSKSGIACFLKEDDSYWDPNDEESMNSPCWQVKWQLRQLVRKMILRTSEETISTVQEKQQNISPLVRERGPQRVAAHITGTRGRSNTLSSPNSKNEKALGRKINSWESSRSGHSFLSNLHLRNGELVIHEKGFYYIYSQTYFRFQEEIKENTKNDKQMVQYIYKYTSYPDPILLMKSARNSCWSKDAEYGLYSIYQGGIFELKENDRIFVSVTNEHLIDMDHEASFFGAFLVG
B1 was tested, and the “immunofluorescence staining pattern of Omi” value (MCF-7 cells [1]) was “showed diffused immunofluorescence staining of Omi”.

B2: M-Omi-S/A-GFP: inactive (S306A) Omi-GFP fusion protein without the MTS (protein)
chain: MAVPSPPPASPRSQYNFIADVVEKTAPAVVYIEILDRHPFLGREVPISNGSGFVVAADGLIVTNAHVVADRRRVRVRLLSGDTYEAVVTAVDPVADIATLRIQTKEPLPTLPLGRSADVRQGEFVVAMGSPFALQNTITSGIVSSAQRPARDLGLPQTNVEYIQTDAAIDFGNAGGPLVNLDGEVIGVNTMKVTAGISFAIPSDRLREFLHRGEKKNSSSGISGSQRRYIGVMMLTLSPSILAELQLREPSFPDVQHGVLIHKVILGSPAHRAGLRPGDVILAIGEQMVQNAEDVYEAVRTQSQLAVQIRRGRETLTLYVTPEVTE
modifications: left off: large carriers
In the case of B2, the “induction of apoptosis in MCF-7 cells” value (MCF-7 cells [2]) is reported as “not the inactive M-Omi-S/A-GFP, was able to induce apoptosis” and the “binding to XIAP-BIR3 (GST-BIR3)” value (XIAP-BIR3) is reported as “do not bind XIAP-BIR3”.

B3: mature Omi: Omi polypeptide comprising residues 134-458 of SEQ ID NO:1; recombinant with C-terminal His6 tag (protein, listed as Homo sapiens)
chain: AVPSPPPASPRSQYNFIADVVEKTAPAVVYIEILDRHPFLGREVPISNGSGFVVAADGLIVTNAHVVADRRRVRVRLLSGDTYEAVVTAVDPVADIATLRIQTKEPLPTLPLGRSADVRQGEFVVAMGSPFALQNTITSGIVSSAQRPARDLGLPQTNVEYIQTDAAIDFGNSGGPLVNLDGEVIGVNTMKVTAGISFAIPSDRLREFLHRGEKKNSSSGISGSQRRYIGVMMLTLSPSILAELQLREPSFPDVQHGVLIHKVILGSPAHRAGLRPGDVILAIGEQMVQNAEDVYEAVRTQSQLAVQIRRGRETLTLYVTPEVTE
modifications: C-terminal His6 tag
In the case of B3, the “interaction with cIAP2” value (cIAP2) is reported as “found to also interact with cIAP1 and cIAP2”, the “interaction with cIAP1” value (cIAP1) is reported as “found to also interact with cIAP1” and the “interaction with endogenous XIAP in vivo” value (endogenous XIAP) is reported as “can also interact with endogenous XIAP in vivo”. The “interaction with GST-BIR1, 2 fusion protein” value [3] was “able to interact with the GST-BIR1, 2 fusion protein”, the “interaction with GST-BIR3 fusion protein” value [4] was “able to interact equally with the wild type GST-BIR3 protein” and the “interaction with GST-BIR3-E314S mutant” value (GST-BIR3-E314S mutant) was “not with the GST-BIR3-E314S mutant”. The “promotion of procaspase-3 activation” value [5] was “able to promote procaspase-3 activation in the XIAP-containing S100 extracts almost to the same extent as Smac”.

B4: GFP-IETD-AVP: Omi with MTS replaced by a GFP-IETD sequence and active site Ser306 mutated to Ala (protein)
chain: AVPSPPPASPRSQYNFIADVVEKTAPAVVYIEILDRHPFLGREVPISNGSGFVVAADGLIVTNAHVVADRRRVRVRLLSGDTYEAVVTAVDPVADIATLRIQTKEPLPTLPLGRSADVRQGEFVVAMGSPFALQNTITSGIVSSAQRPARDLGLPQTNVEYIQTDAAIDFGNAGGPLVNLDGEVIGVNTMKVTAGISFAIPSDRLREFLHRGEKKNSSSGISGSQRRYIGVMMLTLSPSILAELQLREPSFPDVQHGVLIHKVILGSPAHRAGLRPGDVILAIGEQMVQNAEDVYEAVRTQSQLAVQIRRGRETLTLYVTPEVTE
B4 was tested, and the “enhancement of TRAIL-induced apoptosis” value (MCF-7 cells [6]) was “enhanced TRAIL-induced apoptosis in these cells several folds above the GFP transfected control cells”.

B5: GFP-IETD-SSA: GFP-IETD-Omi-S/A with the AVPS motif mutated to SSAS motif (protein)
chain: SSASPPPASPRSQYNFIADVVEKTAPAVVYIEILDRHPFLGREVPISNGSGFVVAADGLIVTNAHVVADRRRVRVRLLSGDTYEAVVTAVDPVADIATLRIQTKEPLPTLPLGRSADVRQGEFVVAMGSPFALQNTITSGIVSSAQRPARDLGLPQTNVEYIQTDAAIDFGNAGGPLVNLDGEVIGVNTMKVTAGISFAIPSDRLREFLHRGEKKNSSSGISGSQRRYIGVMMLTLSPSILAELQLREPSFPDVQHGVLIHKVILGSPAHRAGLRPGDVILAIGEQMVQNAEDVYEAVRTQSQLAVQIRRGRETLTLYVTPEVTE
With B5 the “binding to XIAP-BIR3 (GST-BIR3)” value (XIAP-BIR3) was “abolished the apoptotic enhancement activity of Omi-S/A and the ability to bind to BIR3” and the “enhancement of TRAIL-induced apoptosis” value (MCF-7 cells [6]) was “abolished the apoptotic enhancement activity”.
